Test system: Escherichia coli TOP10
Experiment: shrunken log2 fold change of peptide-encoding DNA abundance (4.5 h post-induction vs induction); higher = less antimicrobial activity (less host growth inhibition)
Settings: time post-induction: 4.5 h; library: site-saturation at positions 5, 18, 19, 20
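Also: peptides expressed intracellularly from a pBAD plasmid library in pooled LB shake-flask culture, induced with 0.3% L-arabinose, DNA abundance read by NGS, three biological replicates, DESeq2 with apeglm shrinkage.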

Sequence	shrunken log2 fold change
RRIRLRPPRLPRPRPRPRHRPRP	-0.0544
RRIRLRPPRLPRPRPRPRIDPRP	-0.0317
RRIRLRPPRLPRPRPRPRKDPRP	0.0699
RRIRLRPPRLPRPRPRPRKMPRP	0.281
RRIRLRPPRLPRPRPRPRKPPRP	0.751
RRIRLRPPRLPRPRPRPRMKPRP	-0.00259
RRIRLRPPRLPRPRPRPRNCPRP	-0.51
RRIRLRPPRLPRPRPRPRNKPRP	-0.156
RRIRLRPPRLPRPRPRPRPTPRP	0.484
RRIRLRPPRLPRPRPRPRQAPRP	-0.00965
RRIRLRPPRLPRPRPRPRQEPRP	0.0259
RRIRLRPPRLPRPRPRPRRIPRP	0.214
RRIRLRPPRLPRPRPRPRRKPRP	-0.00224
RRIRLRPPRLPRPRPRPRSSPRP	-0.277
RRIRLRPPRLPRPRPRPRSWPRP	0.297
RRIRLRPPRLPRPRPRPRTKPRP	0.567
RRIRLRPPRLPRPRPRPRYLPRP	-0.0102
RRIRLRPPRLPRPRPRPRYSPRP	-0.087
RRIRLRPPRLPRPRPRPRYWPRP	-0.0087
RRIRLRPPRLPRPRPRPRYYPRP	-0.103
RRIRLRPPRLPRPRPRPSCCPRP	-0.212
RRIRLRPPRLPRPRPRPSCEPRP	-0.0674
RRIRLRPPRLPRPRPRPSCGPRP	-0.583
RRIRLRPPRLPRPRPRPSCVPRP	-0.0228
RRIRLRPPRLPRPRPRPSDRPRP	-0.147

Sequence	shrunken log2 fold change
RRIRLRPPRLPRPRPRPSFLPRP	-0.562
RRIRLRPPRLPRPRPRPSGQPRP	-0.0893
RRIRLRPPRLPRPRPRPSGSPRP	0.182
RRIRLRPPRLPRPRPRPSKLPRP	-0.388
RRIRLRPPRLPRPRPRPSNAPRP	-0.204
RRIRLRPPRLPRPRPRPSNGPRP	-0.00256
RRIRLRPPRLPRPRPRPSPMPRP	-0.107
RRIRLRPPRLPRPRPRPSQTPRP	-0.217
RRIRLRPPRLPRPRPRPSRMPRP	-0.241
RRIRLRPPRLPRPRPRPSRTPRP	-0.204
RRIRLRPPRLPRPRPRPSTEPRP	0.0451
RRIRLRPPRLPRPRPRPSVCPRP	0.0879
RRIRLRPPRLPRPRPRPSVEPRP	0.0961
RRIRLRPPRLPRPRPRPSWLPRP	-0.532
RRIRLRPPRLPRPRPRPSYPPRP	-0.472
RRIRLRPPRLPRPRPRPTAGPRP	0.53
RRIRLRPPRLPRPRPRPTAKPRP	0.134
RRIRLRPPRLPRPRPRPTCLPRP	-0.255
RRIRLRPPRLPRPRPRPTEQPRP	0.0272
RRIRLRPPRLPRPRPRPTFGPRP	-0.0654
RRIRLRPPRLPRPRPRPTFRPRP	0.0593
RRIRLRPPRLPRPRPRPTGTPRP	0.104
RRIRLRPPRLPRPRPRPTHSPRP	0.122
RRIRLRPPRLPRPRPRPTIQPRP	-0.0934
RRIRLRPPRLPRPRPRPTIYPRP	-0.334

Sequence	shrunken log2 fold change
RRIRLRPPRLPRPRPRPTKNPRP	0.00698
RRIRLRPPRLPRPRPRPTKYPRP	-0.47
RRIRLRPPRLPRPRPRPTLIPRP	-0.407
RRIRLRPPRLPRPRPRPTMPPRP	-0.0783
RRIRLRPPRLPRPRPRPTMRPRP	0.836
RRIRLRPPRLPRPRPRPTNMPRP	-0.537
RRIRLRPPRLPRPRPRPTPAPRP	0.306
RRIRLRPPRLPRPRPRPTRDPRP	0.454
RRIRLRPPRLPRPRPRPTRQPRP	-0.0888
RRIRLRPPRLPRPRPRPTSHPRP	-0.0914
RRIRLRPPRLPRPRPRPTSRPRP	0.0104
RRIRLRPPRLPRPRPRPTVEPRP	0.114
RRIRLRPPRLPRPRPRPTVFPRP	0.156
RRIRLRPPRLPRPRPRPTVHPRP	-0.131
RRIRLRPPRLPRPRPRPTVPPRP	-0.0925
RRIRLRPPRLPRPRPRPTWKPRP	-0.06
RRIRLRPPRLPRPRPRPTWQPRP	0.187
RRIRLRPPRLPRPRPRPTWRPRP	0.337
RRIRLRPPRLPRPRPRPTYAPRP	-0.167
RRIRLRPPRLPRPRPRPTYSPRP	-0.572
RRIRLRPPRLPRPRPRPVATPRP	0.282
RRIRLRPPRLPRPRPRPVCKPRP	0.000959
RRIRLRPPRLPRPRPRPVFMPRP	-0.203
RRIRLRPPRLPRPRPRPVHFPRP	-0.272
RRIRLRPPRLPRPRPRPVIAPRP	-0.176

Sequence	shrunken log2 fold change
RRIRLRPPRLPRPRPRPVIYPRP	-0.224
RRIRLRPPRLPRPRPRPVKSPRP	-0.075
RRIRLRPPRLPRPRPRPVLQPRP	0.195
RRIRLRPPRLPRPRPRPVMAPRP	0.0839
RRIRLRPPRLPRPRPRPVMEPRP	0.233
RRIRLRPPRLPRPRPRPVMTPRP	-0.148
RRIRLRPPRLPRPRPRPVMYPRP	-0.302
RRIRLRPPRLPRPRPRPVQEPRP	-0.0609
RRIRLRPPRLPRPRPRPVQKPRP	0.113
RRIRLRPPRLPRPRPRPVQTPRP	0.102
RRIRLRPPRLPRPRPRPVRCPRP	0.0127
RRIRLRPPRLPRPRPRPVRFPRP	1.26
RRIRLRPPRLPRPRPRPVSHPRP	0.0743
RRIRLRPPRLPRPRPRPVSKPRP	-0.181
RRIRLRPPRLPRPRPRPVWPPRP	0.422
RRIRLRPPRLPRPRPRPVWTPRP	0.00633
RRIRLRPPRLPRPRPRPWAEPRP	0.13
RRIRLRPPRLPRPRPRPWAKPRP	0.173
RRIRLRPPRLPRPRPRPWCDPRP	-0.437
RRIRLRPPRLPRPRPRPWDSPRP	-0.145
RRIRLRPPRLPRPRPRPWIEPRP	-0.00922
RRIRLRPPRLPRPRPRPWMIPRP	-0.0928
RRIRLRPPRLPRPRPRPWQAPRP	0.226
RRIRLRPPRLPRPRPRPWQMPRP	0.123
RRIRLRPPRLPRPRPRPWQTPRP	-0.0245

Sequence	shrunken log2 fold change
RRIRLRPPRLPRPRPRPWREPRP	-0.018
RRIRLRPPRLPRPRPRPWSCPRP	-0.136
RRIRLRPPRLPRPRPRPWSNPRP	-0.195
RRIRLRPPRLPRPRPRPWSTPRP	-0.137
RRIRLRPPRLPRPRPRPWVMPRP	-1.02
RRIRLRPPRLPRPRPRPWWCPRP	-0.0878
RRIRLRPPRLPRPRPRPWWMPRP	-0.0102
RRIRLRPPRLPRPRPRPWWNPRP	-0.426
RRIRLRPPRLPRPRPRPWYNPRP	0.111
RRIRLRPPRLPRPRPRPWYTPRP	-0.57
RRIRLRPPRLPRPRPRPYCMPRP	-1.34
RRIRLRPPRLPRPRPRPYCSPRP	-0.00936
RRIRLRPPRLPRPRPRPYEKPRP	-0.159
RRIRLRPPRLPRPRPRPYERPRP	-0.148
RRIRLRPPRLPRPRPRPYFDPRP	-0.255
RRIRLRPPRLPRPRPRPYHQPRP	-0.026
RRIRLRPPRLPRPRPRPYHYPRP	-0.16
RRIRLRPPRLPRPRPRPYIVPRP	-0.0573
RRIRLRPPRLPRPRPRPYMFPRP	-0.123
RRIRLRPPRLPRPRPRPYMKPRP	-0.804
RRIRLRPPRLPRPRPRPYNCPRP	-0.053
RRIRLRPPRLPRPRPRPYNPPRP	-0.454
RRIRLRPPRLPRPRPRPYNQPRP	-0.693
RRIRLRPPRLPRPRPRPYPAPRP	-0.368
RRIRLRPPRLPRPRPRPYQVPRP	-0.0302

Sequence	shrunken log2 fold change
RRIRLRPPRLPRPRPRPYQWPRP	-0.241
RRIRLRPPRLPRPRPRPYRGPRP	-0.246
RRIRLRPPRLPRPRPRPYRMPRP	-1.54
RRIRLRPPRLPRPRPRPYSTPRP	-1.09
RRIRLRPPRLPRPRPRPYSYPRP	-0.977
RRIRLRPPRLPRPRPRPYTFPRP	-0.00482
RRIRLRPPRLPRPRPRPYTQPRP	-0.845
RRIRLRPPRLPRPRPRPYVPPRP	-0.383
RRIRLRPPRLPRPRPRPYWDPRP	-0.195
RRIRMRPPRLPRPRPRPAAAPRP	2.93
RRIRMRPPRLPRPRPRPACPPRP	0.262
RRIRMRPPRLPRPRPRPADTPRP	0.367
RRIRMRPPRLPRPRPRPAEVPRP	0.411
RRIRMRPPRLPRPRPRPAFMPRP	0.211
RRIRMRPPRLPRPRPRPAGVPRP	0.688
RRIRMRPPRLPRPRPRPAHGPRP	0.226
RRIRMRPPRLPRPRPRPAHKPRP	0.534
RRIRMRPPRLPRPRPRPAHWPRP	0.792
RRIRMRPPRLPRPRPRPAITPRP	0.0226
RRIRMRPPRLPRPRPRPALTPRP	0.433
RRIRMRPPRLPRPRPRPALWPRP	0.858
RRIRMRPPRLPRPRPRPAMTPRP	1.35
RRIRMRPPRLPRPRPRPANWPRP	2.4
RRIRMRPPRLPRPRPRPAPHPRP	1.33
RRIRMRPPRLPRPRPRPAQFPRP	-0.107

From the supplement of paper PMC9112550, “Optimization of the antimicrobial peptide Bac7 by deep mutational scanning” (BMC Biology, 2022)
